No end group written: not given here. *: point of attachment. APDP = N-(4-[p-azidosalicylamido]butyl)-3'-(2'-pyridyldithio)propionamide, photoaffinity cross-linker coupled via disulfide to Cys, [N-]=[N+]=Nc1ccc(C(=O)NCCCCNC(=O)CCS*)c(O)c1; 125I = [125I]*
T1: AtPEPR1 (Arabidopsis thaliana, UniProt Q9SSL9 29-1123, glycosylated (about 180 kD, about 150 kD after PNGase F))
T1 sequence: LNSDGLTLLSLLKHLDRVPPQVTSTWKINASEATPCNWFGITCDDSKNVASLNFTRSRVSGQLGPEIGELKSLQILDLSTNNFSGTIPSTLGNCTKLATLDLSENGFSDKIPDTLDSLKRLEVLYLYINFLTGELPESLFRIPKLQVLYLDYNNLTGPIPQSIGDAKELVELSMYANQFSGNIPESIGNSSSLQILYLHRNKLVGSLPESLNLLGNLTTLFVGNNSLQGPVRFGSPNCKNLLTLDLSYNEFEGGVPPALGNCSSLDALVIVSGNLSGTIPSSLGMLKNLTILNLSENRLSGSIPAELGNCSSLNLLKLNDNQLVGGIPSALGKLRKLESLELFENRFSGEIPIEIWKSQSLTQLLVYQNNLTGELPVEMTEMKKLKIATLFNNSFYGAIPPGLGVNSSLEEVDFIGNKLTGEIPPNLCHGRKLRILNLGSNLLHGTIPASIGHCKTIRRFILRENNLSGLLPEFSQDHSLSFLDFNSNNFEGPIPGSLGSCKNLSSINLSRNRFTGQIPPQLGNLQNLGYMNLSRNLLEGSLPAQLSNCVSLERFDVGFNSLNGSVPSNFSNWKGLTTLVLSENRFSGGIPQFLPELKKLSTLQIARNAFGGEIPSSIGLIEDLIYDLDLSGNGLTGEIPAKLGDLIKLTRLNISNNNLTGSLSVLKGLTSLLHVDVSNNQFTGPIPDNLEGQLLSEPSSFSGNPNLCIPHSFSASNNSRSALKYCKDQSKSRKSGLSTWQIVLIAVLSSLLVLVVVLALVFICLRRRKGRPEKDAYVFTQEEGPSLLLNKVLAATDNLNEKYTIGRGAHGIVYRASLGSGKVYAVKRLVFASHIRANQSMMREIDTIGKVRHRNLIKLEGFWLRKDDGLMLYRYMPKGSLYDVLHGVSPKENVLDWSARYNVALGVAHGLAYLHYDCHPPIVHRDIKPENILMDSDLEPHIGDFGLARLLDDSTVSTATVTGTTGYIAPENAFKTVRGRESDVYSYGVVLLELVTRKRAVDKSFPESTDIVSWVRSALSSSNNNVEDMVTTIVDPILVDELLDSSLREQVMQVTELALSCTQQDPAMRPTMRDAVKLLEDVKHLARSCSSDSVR

T2: AtPEPR2 (Arabidopsis thaliana, UniProt Q9FZ59 27-1088)
T2 construct: Coding region expressed under the CaMV 35S promoter in tobacco suspension-cultured cells; also called second AtPep1 receptor; At1g17750
T2 sequence: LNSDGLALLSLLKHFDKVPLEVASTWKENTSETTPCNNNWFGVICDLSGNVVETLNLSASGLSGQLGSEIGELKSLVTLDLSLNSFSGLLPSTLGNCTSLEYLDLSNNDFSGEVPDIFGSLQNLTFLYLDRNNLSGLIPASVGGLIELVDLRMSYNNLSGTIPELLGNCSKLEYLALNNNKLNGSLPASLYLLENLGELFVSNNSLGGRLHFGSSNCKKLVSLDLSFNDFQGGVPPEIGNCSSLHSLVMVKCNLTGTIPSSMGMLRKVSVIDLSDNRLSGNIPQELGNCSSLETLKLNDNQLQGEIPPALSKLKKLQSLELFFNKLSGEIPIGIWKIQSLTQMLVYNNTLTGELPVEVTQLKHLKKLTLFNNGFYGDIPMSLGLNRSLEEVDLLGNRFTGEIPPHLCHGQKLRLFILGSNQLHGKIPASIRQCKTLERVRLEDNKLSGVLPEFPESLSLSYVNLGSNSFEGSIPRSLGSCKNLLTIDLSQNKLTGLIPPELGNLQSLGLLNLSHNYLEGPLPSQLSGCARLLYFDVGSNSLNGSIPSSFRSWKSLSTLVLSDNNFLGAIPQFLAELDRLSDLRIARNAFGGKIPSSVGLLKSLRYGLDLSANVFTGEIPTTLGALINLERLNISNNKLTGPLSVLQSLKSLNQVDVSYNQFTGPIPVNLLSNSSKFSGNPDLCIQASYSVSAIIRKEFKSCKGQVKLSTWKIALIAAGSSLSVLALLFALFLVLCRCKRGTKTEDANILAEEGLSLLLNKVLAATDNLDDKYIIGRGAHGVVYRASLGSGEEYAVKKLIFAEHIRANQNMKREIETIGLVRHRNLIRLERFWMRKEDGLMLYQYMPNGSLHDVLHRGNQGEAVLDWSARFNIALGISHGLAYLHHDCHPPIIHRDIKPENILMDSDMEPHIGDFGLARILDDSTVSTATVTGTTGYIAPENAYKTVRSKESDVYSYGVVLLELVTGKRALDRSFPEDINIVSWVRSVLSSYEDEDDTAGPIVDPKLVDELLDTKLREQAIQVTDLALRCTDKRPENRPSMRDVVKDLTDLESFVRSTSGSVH

B1: AtPep1 (peptide)
peptide: ATKVKAKQRGKEKVSSGRPGQHN
notes: 23 amino acid peptide, chemically synthesized, not post-translationally modified; also called Arabidopsis Peptide 1; native AtPep1

Columns and labels:
OsPEPR1 (rice) = experiment: cell-based or functional assay
AtPEPR1 [1] = target: T1, AtPEPR1; experiment: cell-based or functional assay
AtPEPR1 [2] = target: T1, AtPEPR1; experiment: saturation binding of radiolabeled peptide to Arabidopsis suspension cultured cells, Scatchard analysis
Text: An analog of AtPep1 was synthesized with a Tyr residue attached to its N-terminus and radiolabeled with ¹²⁵I to quantify binding. The Tyr analog and mono- and di-iodo-Tyr-AtPep1 analogs were separated by HPLC, and the concentration-dependent activities of AtPep1 and these analogs where tested in the alkalinization assay. […] The mono-iodinated Tyr-AtPep1 comprised about 95% of the iodinated proteins and was employed for binding studies.

AtPEPR1 [3] = target: T1, AtPEPR1; experiment: photoaffinity labeling (0.25 nM) of transgenic tobacco cells expressing AtPEPR1, SDS-PAGE and X-ray film
Experimental: (§1) This wash was repeated twice. The cells were resuspended in 1 mL MS medium and irradiated with UV-B for 10 min on ice to photoactivate the azido group to effect the crosslinking. The cells were washed with 1 mL MS medium, centrifuged as above, and resuspended in 400 μL of 5% SDS. The cells were disrupted by boiling for 30 min, and the insoluble debris was removed by centrifugation at 10,000×g. […] After centrifugation at 10,000×g, the pellet was recovered and dissolved in 100 μL of Laemmli sample buffer containing 5% SDS, boiled for 10 min, and separated using 8% SDS-PAGE. The gels were dried and exposed to X-ray film for 50 hr to visualize labeled proteins. In competition assays, unlabeled AtPep1 and suramin were added to the cells and incubated for 10 min before adding ¹²⁵I-azido-Cys-AtPep1. The same procedures described above were employed to detect labeled proteins.
(§2) For final confirmation, a photoaffinity-labeling experiment was performed using the transgenic tobacco cells. […] After separation of extracted proteins by SDS-PAGE, the labeled proteins were detected on X-ray film. […] Since no specific labeling was detected in wild type tobacco and GUS expressing cells, the proteins labeled specifically by ¹²⁵I₁-azido-Cys-AtPep1 in AtPEPR1 and AtPEPR2 expressing cells were products from the AtPEPR1 and AtPEPR2 genes.

AtPEPR2 [4] = target: T2, AtPEPR2; experiment: photoaffinity labeling (0.25 nM) of transgenic tobacco cells expressing AtPEPR2, SDS-PAGE and X-ray film
Experimental: as §1, §2

AtPEPR2 [5] = target: T2, AtPEPR2; experiment: sub-heading of Example 9, supported by alkalinization and photoaffinity labeling of transgenic tobacco cells
Experimental: To clarify whether AtPEPR2 binds to AtPep1, the AtPEPR2 coding region was fused to the CaMV 35S promoter and introduced into tobacco suspension-cultured cells by Agrobacterium. Tobacco cells expressing AtPEPR1 and GUS genes were also created as positive and negative controls, respectively. […] These transgenic lines were analyzed for alkalinizing activity as previously described (Pearce et al., Proc. Natl. Acad. Sci. USA 98, 12843-12847, 2001). […] The level of response to AtPep1 for the AtPEPR2-expressing cells was similar to that of AtPEPR1-expressing cells and to Arabidopsis cells (Yamaguchi et al., Proc. Natl. Acad. Sci. USA 103: 10104-10109, 2006, Huffaker et al., Proc. Natl. Acad. Sci. USA 103: 10098-10103, 2006), with a maximal change of 1-1.2 pH units and a half-maximal peptide activity of 0.25 nM.
as §2

Molecule	change in medium pH of transgenic tobacco cells expressing AtPEPR1 at 2.5 nM peptide (AtPEPR1 [1]) [pH units]	half-maximal activity, alkalinization of tobacco cells expressing AtPEPR1 (AtPEPR1 [1]) [nM]	maximal change of medium pH, tobacco cells expressing AtPEPR1 (AtPEPR1 [1]) [pH units]	other results
ZmPep4a (peptide)	–	–	–	half-maximal activity, alkalinization of tobacco cells expressing OsPEPR1 (OsPEPR1 (rice)): 0.25 nM; medium pH increase, tobacco cells expressing OsPEPR1 (OsPEPR1 (rice)): 1.2 pH unit
OsPep3a (peptide)	–	–	–	half-maximal activity, alkalinization of tobacco cells expressing OsPEPR1 (OsPEPR1 (rice)): 0.25 nM; medium pH increase, tobacco cells expressing OsPEPR1 (OsPEPR1 (rice)): 1.2 pH unit
ITAVLRRRPRPPPYSSGRPGQNN [AtPep6]	≤ 0.6	0.25	1.2	–
Y(125I)ATKVKAKQRGKEKVSSGRPGQHN (also called mono-iodinated Tyr-AtPep1) [125I1-Tyr-AtPep1]	–	–	–	Kd (AtPEPR1 [2]): 0.25 nM
C(APDP)ATKVKAKQRGKEKVSSGRPGQHN (also: mono-iodinated with 125I, site not given here, also called 125I1-azido-Cys-AtPep1) [125I-azido-Cys-AtPep1]	–	–	–	binding result (AtPEPR1 [3]): binds; binding result (AtPEPR2 [4]): binds
B1	–	0.25	1.2	binding result (AtPEPR2 [5]): binds
VSGNVAARKGKQQTSSGKGGGTN [AtPep7]	–	2.5	–	–
GLPGKKNVLKKSRESSGKPGGTN [AtPep5]	≤ 0.6	0.25	1.2	–
SLNVMRKGIRKQPVSSGKRGGVN [AtPep2]	≤ 0.6	0.25	1.2	–
EIKARGKNKTKPTPSSGKGGKHN [AtPep4]	–	2.5	–	–

From patent US20090300802A1 (WASHINGTON STATE UNIVERSITY RESEARCH FOUNDATION, published 2009)
